Results taken from patent publication US20160237160A1 (Bayer, published 2016).

B1: ITEM-4 (antibody, V domains shown)
VH: QVQLQQSGPELVKPGASVKMSCKASGYTFTDFIIAWVKQRTGQGLEWIGEIYPGTGRTYYSEKFRGKATLTADKSSNTAYMQLSSLTSVDSAVYFCARRTIYYDYDGDYWGQGTTLTVSS
VL: DIVMTQAAFSNPVTLGTSASISCRSSKSLLHSNGITYLYWYLQKPGQSPQLLIYQMSNLASGVPDRFSSSGSGTDFTLRISRVEAEDVGVYYCAHNLELPWTFGGGTKLELK
B2: 18.3.3(TPP-2193) (antibody, mouse IgG2a, kappa, V domains shown)
VH: EVKLGESGGGLVQPGGSMKLSCVASGFPFTKYWMNWVRQSPEKGLEWVAEIRLKSDNYATHYAESAKGRFTISRDDSRSSVYLQMNNLRAEDTAIYYCSPTYADTMDYWGQGTSVTVSS
VL: DIVLTQSPASLAVSLGQRATISCKASQSVSTSTYSYMQWYQQRPGQSPKLLIKYASKLDSGVPARFSGSGSGTDFTLNIHPVEEEDTATYYCQHSWELPYTFGGGTRLEIKR
notes: Murine IgG2a; variable domains from WO2009/020933 with constant region added
B3: TPP-1853 (antibody, human IgG1, kappa, V domains shown)
VH: EVQLLESGGGLVQPGGSLRLSCAASGFTFSPYPMMWVRQAPGKGLEWVSYISPSGGKTHYADSVKGRFTISRDNSKNTLYLQMNSLRAEDTAVYYCARGGDTYFDYFDYWGQGTLVTVSS
VL: DIQMTQSPATLSASVGDRVTITCRASQSISSYLNWYQQKPGKAPKLLIYNASSLQSGVPSRFSGSGSGTDFTLTISSLQPEDFATYYCQQSYTSPGITFGPGTKVEIKR
notes: Human IgG1
B4: TPP-2148 (antibody, human IgG1, kappa, V domains shown)
VH: EVQLLESGGGLVQPGGSLRLSCAASGFTFSPYPMMWVRQAPGKGLEWVSYISPSGGKTHYADSVKGRFTISRDNSKNTLYLQMNSLRAEDTAVYYCARGGDTYFDYFDYWGQGTLVTVSS
VL: DIQMTQSPATLSASVGDRVTITCRASQSISSYLNWYQQKPGKAPKLLIYQASSLQSGVPSRFSGSGSGTDFTLTISSLQPEDFATYYCQQSYTSPFITFGPGTKVEIKR
notes: Human IgG1
B5: TPP-2093 (antibody, human IgG1, kappa, V domains shown)
VH: EVQLLESGGGLVQPGGSLRLSCAASGFTFSPYPMMWVRQAPGKGLEWVSYISPSGGSTHYADSVKGRFTISRDNSKNTLYLQMNSLRAEDTAVYYCARGGDTYFDYFDYWGQGTLVTVSS
VL: DIQMTQSPSSLSASVGDRVTITCRASQSISSYLNWYQQKPGKAPKLLIYQASSLQSGVPSRFSGSGSGTDFTLTISSLQPEDFATYYCQQSYTSPFITFGQGTKVEIKR
notes: Human IgG1
B6: TPP-883 (antibody, human IgG1, kappa, V domains shown)
VH: EVQLLESGGGLVQPGGSLRLSCAASGFTFSPYPMMWVRQAPGKGLEWVSYISPSGGKTHYADSVKGRFTISRDNSKNTLYLQMNSLRAEDTAVYYCARGGDGYFDYFDYWGQGTLVTVSS
VL: DIQMTQSPATLSASVGDRVTITCRASQSISSYLNWYQQKPGKAPKLLIYAASSLQSGVPSRFSGSGSGTDFTLTISSLQPEDFATYYCQQSYSSPGITFGPGTKVEIKR
notes: Human IgG1; parent antibody from the phage library
B7: TPP-1857 (antibody, human IgG1, kappa, V domains shown)
VH: EVQLLESGGGLVQPGGSLRLSCAASGFTFSPYPMMWVRQAPGKGLEWVSYISPSGGKTHYADSVKGRFTISRDNSKNTLYLQMNSLRAEDTAVYYCARGGDTYFDYFDYWGQGTLVTVSS
VL: DIQMTQSPATLSASVGDRVTITCRASQSISGYLNWYQQKPGKAPKLLIYNASSLQSGVPSRFSGSGSGTDFTLTISSLQPEDFATYYCQQSYTSPGITFGPGTKVEIKR
notes: Human IgG1
B8: TPP-1854 (antibody, human IgG1, kappa, V domains shown)
VH: EVQLLESGGGLVQPGGSLRLSCAASGFTFSPYPMIWVRQAPGKGLEWVSYISPSGGKTHYADSVKGRFTISRDNSKNTLYLQMNSLRAEDTAVYYCARGGDTYFDYFDYWGQGTLVTVSS
VL: DIQMTQSPATLSASVGDRVTITCRASQSISGYLNWYQQKPGKAPKLLIYNASSLQSGVPSRFSGSGSGTDFTLTISSLQPEDFATYYCQQSYTSPFITFGPGTKVEIKR
notes: Human IgG1
B9: TPP-2149 (antibody, human IgG1, kappa, V domains shown)
VH: EVQLLESGGGLVQPGGSLRLSCAASGFTFSPYPMIWVRQAPGKGLEWVSYISPSGGKTHYADSVKGRFTISRDNSKNTLYLQMNSLRAEDTAVYYCARGGDTYFDYFDYWGQGTLVTVSS
VL: DIQMTQSPATLSASVGDRVTITCRASQSISGYLNWYQQKPGKAPKLLIYQASSLQSGVPSRFSGSGSGTDFTLTISSLQPEDFATYYCQQSYTSPFITFGPGTKVEIKR
notes: Human IgG1
B10: TPP-1858 (antibody, human IgG1, kappa, V domains shown)
VH: EVQLLESGGGLVQPGGSLRLSCAASGFTFSPYPMMWVRQAPGKGLEWVSYISPSGGKTHYADSVKGRFTISRDNSKNTLYLQMNSLRAEDTAVYYCARGGDTYFDYFDYWGQGTLVTVSS
VL: DIQMTQSPATLSASVGDRVTITCRASQSISSYLNWYQQKPGKAPKLLIYNASSLQSGVPSRFSGSGSGTDFTLTISSLQPEDFATYYCQQSYTSPFITFGPGTKVEIKR
notes: Human IgG1

What was measured:
[1] = target: T1, TPP-2305 (hTNFRSF12Aaa28-80) (Human, UniProt Q9NP84 28-80); test: SPR (Biacore T100), IgG captured, TPP-2305 injected, 1:1 model
T1 construct: monomeric extracellular domain, bought; also called purified recombinant human TWEAKR protein; soluble monomeric TWEAKR
Protocol: Binding affinities of anti-TWEAKR antibodies were determined by surface plasmon resonance analysis on a Biacore T100 instrument (GE Healthcare Biacore, Inc.). Antibodies were immobilized onto a CM5 sensor chip through an indirect capturing reagent, anti-human IgG(Fc). […] Anti-TWEAKR antibodies were injected at a concentration of 10 μg/ml at 10 μl/min for 10 sec.
Sensorgrams were generated after in-line reference cell correction followed by buffer sample subtraction. The dissociation equilibrium constant (KD) was calculated based on the ratio of association (kₒₙ) and dissociation rated (koff) constants, obtained by fitting sensorgrams with a first order 1:1 binding model.

[2] = target: TPP-1989 (hTNFRSF12Aaa28-80-H60K-hIgG1-Fc) (human); test: ELISA, TWEAKR-Fc coated 62 ng/ml, biotin-IgG titrated; + means IC50 1 to 150 pM;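 further: biotinylated IgG binding to immobilized TWEAKR-Fc muteins, detected with Streptavidin-HRP and Amplex Red, IC50 derived from fitted dose-response curves of twofold serial dilutions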
Protocol: (§1) To collect dose-response data, the different TWEAKR-Fc muteins were coated with a low concentration (62 ng/ml) in a 384-well Maxisorb ELISA plate and a serial 2fold dilution of biotinylated IgG starting with a concentration of 100 nM was used as soluble binding partner. Detection was done with Streptavidin-HRP and Amplex Red.
(§2) The dose-response data were fitted and IC50s determined.

[3] = target: TPP-1988 (hTNFRSF12Aaa28-80-M50A-hIgG1-Fc) (human); test: as above
Protocol: as §1, §2

[4] = target: T2, TPP-599 (HUMAN-TNFRSF12Aaa28-80-hIgG1-Fc) (human); test: as above
T2 construct: dimeric; also called human TWEAKR Fc; TWEAKR-Fc
Protocol: as §1, §2

[5] = target: TPP-1990 (hTNFRSF12Aaa28-80-L65Q-hIgG1-Fc) (human); test: as above
Protocol: as §1, §2

[6] = target: TPP-1986 (hTNFRSF12Aaa28-80-T33Q-hIgG1-Fc) (human); test: as above
Protocol: as §1, §2

[7] = target: TPP-1987 (hTNFRSF12Aaa28-80-S40R-hIgG1-Fc) (human); test: as above
Protocol: as §1, §2

[8] = target: T3, TPP-2614 (TweakR-ECD-34-68-hIgGFc-His-D47A) (human); test: ELISA, IgG coated 1 ug/ml, TWEAKR variant 250 ng/ml, anti-HIS HRP (FIG. 6C)
T3 construct: also called D47A TWEAKR mutein
Protocol: Antibodies were coated (1 μg/ml), TWEAKR variant was added at 250 ng/ml, detection via anti-HIS HRP. […] Antibodies were coated (1 μg/ml), TWEAKR variant was added 250 ng/ml, detection via anti-HIS HRP.

[9] = target: T4, TWEAKR (TNFRSF12A, FN14), human, on tumor cell lines (human, UniProt Q9NP84 28-129); test: cell-based or functional assay
[10] = target: T4, TWEAKR (TNFRSF12A, FN14), human, on …; test: FACS, HT29 cells, 10 ug/ml
Protocol: (§3) To determine the binding characteristics of the anti-TWEAKR antibodies on mouse and human cancer cell lines, binding was tested by flow cytometry to a panel of cell lines. […] Cells were suspended at approximately 10⁵ cells/well in FACS buffer (PBS without Ca/Mg, containing 3% FCS, Biochrom). Cells were centrifuged (250 g, 5 min, 4° C.) and supernatant discarded. Cells were resuspended in dilutions of the antibodies of interest (10 μg/ml in 80 μl if not indicated otherwise) in FACS buffer, and incubated on ice for 1 h. […] After incubation for 1 h on ice cells were again washed with cold FACS buffer, resuspended in 1000 FACS buffer and analyzed by flow cytometry using a FACS-Array (BD Biosciences). Results are calculated as Geo Mean of fluorescence detected by the antibody of interest subtracted by background fluorescence as measured by detection with the secondary antibody alone. Values are scored according to the following system: Geo Mean−Geo Mean of secondary antibody alone >10: +, >100: ++, >1000: +++, 10000: ++++, close to category border in ( ).

[11] = target: T4, TWEAKR (TNFRSF12A, FN14), human, on …; test: FACS, SKOV-3 cells, 10 ug/ml
Protocol: as §3

[12] = target: T4, TWEAKR (TNFRSF12A, FN14), human, on …; test: FACS, WiDr cells, 10 ug/ml
Protocol: as §3

[13] = target: T4, TWEAKR (TNFRSF12A, FN14), human, on …; test: cell-based or functional assay; remark: listed apart in the source
[14] = target: T4, TWEAKR (TNFRSF12A, FN14), human, on …; test: FACS, A375 cells, 10 ug/ml
Protocol: as §3

[15] = target: T4, TWEAKR (TNFRSF12A, FN14), human, on …; test: FACS, 786-O cells, 10 ug/ml
Protocol: as §3

[16] = target: T4, TWEAKR (TNFRSF12A, FN14), human, on …; test: FACS, NCI-H322 cells, 10 ug/ml
Protocol: as §3

[17] = target: T4, TWEAKR (TNFRSF12A, FN14), human, on …; test: cell-based or functional assay; remark: listed apart in the source

Binder | Kd [1] [nM] | koff [1] [s⁻¹] | kon [1] [M⁻¹ s⁻¹] | % binding normalized by wt binding signal [8] [%] | Fold induction of Caspase 3/7, 786-O cells, 100 ug/ml [9] [fold] | Fold induction of Caspase 3/7, HT-29 cells, 100 ug/ml [9] [fold] | Fold induction of Caspase 3/7, NCI-H322 cells, 100 ug/ml [9] [fold] | also measured
B1 | 0.7 | – | – | – | – | – | – | –
B2 | 1.7 | 0.0285 | 1.64e+07 | – | – | – | – | binding result [2]: binds; binding result [3]: binds; binding result [4]: binds; binding result [5]: binds; binding result [6]: binds; binding result [7]: binds
B3 | – | – | – | < 5 | 1.88 | 2.53 | 1.94 | –
B4 | 24.5 | 0.13 | 5.1e+06 | < 5 | – | – | – | –
B5 | 22.1 | 0.09 | 4.1e+06 | < 5 | 1.43 | 2.54 | – | GeoMean of Fluorescence minus GeoMean with the secondary antibody only [10]: 875; GeoMean of Fluorescence minus GeoMean with the secondary antibody only [11]: 2180; GeoMean of Fluorescence minus GeoMean with the secondary antibody only [12]: 1720; % Inhibition of proliferation, A253 cells, 72h, 100 ug/ml [13]: > 100%; % Inhibition of proliferation, HT-29 cells, 24h, 100 ug/ml [13]: > 100%; GeoMean of Fluorescence minus GeoMean with the secondary antibody only [14]: 255; GeoMean of Fluorescence minus GeoMean with the secondary antibody only [15]: 18200; GeoMean of Fluorescence minus GeoMean with the secondary antibody only [16]: 160
B6 | 206 | 0.91 | 4.4e+06 | < 5 | – | – | – | –
B7 | – | – | – | < 5 | 1.76 | 2.37 | 1.89 | –
B8 | – | – | – | < 5 | 2.11 | 2.7 | 1.98 | IL-8 release from A375 cells at 100 ug/ml, % of the activation by 300 ng/ml TWEAK ligand [17]: 129%
B9 | 12.1 | 0.1 | 8.4e+06 | < 5 | – | – | – | –
B10 | – | – | – | < 5 | 2.22 | 2.41 | 2.01 | –
